# Test results as given in patent publication US20170088593A1 (UNIVERSITY OF FLORIDA RESEARCH FOUNDATION, published 2017).
# Molecular target: Keap-1 (UniProt Q14145 1-624)
# Test: cell-based or functional assay
# Keap-1, sequence (Q14145 whole entry): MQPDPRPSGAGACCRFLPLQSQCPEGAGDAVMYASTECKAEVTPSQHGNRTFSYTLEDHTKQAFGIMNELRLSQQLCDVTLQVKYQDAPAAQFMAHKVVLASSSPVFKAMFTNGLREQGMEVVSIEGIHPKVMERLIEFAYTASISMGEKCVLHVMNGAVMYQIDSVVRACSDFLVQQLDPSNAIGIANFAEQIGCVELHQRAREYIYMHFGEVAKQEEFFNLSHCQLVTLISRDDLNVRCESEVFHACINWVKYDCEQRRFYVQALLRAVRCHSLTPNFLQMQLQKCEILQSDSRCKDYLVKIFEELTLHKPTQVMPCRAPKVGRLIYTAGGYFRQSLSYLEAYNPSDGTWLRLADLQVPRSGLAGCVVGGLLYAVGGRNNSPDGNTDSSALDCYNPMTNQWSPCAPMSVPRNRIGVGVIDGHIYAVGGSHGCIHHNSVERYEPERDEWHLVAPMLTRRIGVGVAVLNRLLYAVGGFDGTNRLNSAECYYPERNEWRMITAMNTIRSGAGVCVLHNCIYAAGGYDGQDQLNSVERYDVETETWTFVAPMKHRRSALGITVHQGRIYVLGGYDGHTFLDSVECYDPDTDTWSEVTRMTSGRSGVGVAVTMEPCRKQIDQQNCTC
binder,measurement,value
RKKRRQRRRLQLDEETGEFLPIQ [TatNrf2-14mer peptide (HIV-1 Tat cell penetrating peptide fused to the Nrf2 14mer)],"GSTM1 mRNA (antioxidant enzyme and marker of the ARE response), RT-PCR in human retinal pigment epithelial cells treated with the TatNrf2 plasmid",18 fold
